Measured values as given in patent publication US20150045540A1 (published 2015).

T1: Placenta Growth Factor (PlGF), human (human, UniProt P49763 21-149)
T1 chain: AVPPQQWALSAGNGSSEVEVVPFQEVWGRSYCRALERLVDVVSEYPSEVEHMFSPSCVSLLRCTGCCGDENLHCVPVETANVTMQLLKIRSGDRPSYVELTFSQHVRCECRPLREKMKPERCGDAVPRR


Assays:
[1] = target: Hepatocyte Growth Factor (HGF), human (human, UniProt P14210 32-728); test: ELISA
[2] = target: T1, Placenta Growth Factor (PlGF), human; test: ELISA

Chain of Hepatocyte Growth Factor (HGF), human (P14210 32-728): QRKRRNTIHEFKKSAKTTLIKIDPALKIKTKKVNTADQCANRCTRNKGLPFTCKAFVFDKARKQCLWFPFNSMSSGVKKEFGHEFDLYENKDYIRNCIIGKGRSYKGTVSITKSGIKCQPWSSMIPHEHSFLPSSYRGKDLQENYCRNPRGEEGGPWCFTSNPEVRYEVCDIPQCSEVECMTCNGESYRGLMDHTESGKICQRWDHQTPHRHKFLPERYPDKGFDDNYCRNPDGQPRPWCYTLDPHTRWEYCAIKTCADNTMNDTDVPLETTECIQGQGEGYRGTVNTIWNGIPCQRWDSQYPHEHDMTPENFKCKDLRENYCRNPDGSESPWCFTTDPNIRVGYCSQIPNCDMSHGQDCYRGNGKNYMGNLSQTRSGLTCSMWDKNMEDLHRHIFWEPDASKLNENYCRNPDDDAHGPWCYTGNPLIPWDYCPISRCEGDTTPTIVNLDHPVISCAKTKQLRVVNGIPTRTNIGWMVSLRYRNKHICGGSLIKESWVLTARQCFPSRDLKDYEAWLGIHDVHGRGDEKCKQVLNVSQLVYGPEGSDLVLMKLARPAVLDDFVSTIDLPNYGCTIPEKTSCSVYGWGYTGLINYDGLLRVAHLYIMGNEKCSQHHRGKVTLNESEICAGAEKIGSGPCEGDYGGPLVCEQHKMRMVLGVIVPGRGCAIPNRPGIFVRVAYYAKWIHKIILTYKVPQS

| EC50 [1] [pM] | EC50 [2] [pM] | Binder |
| --- | --- | --- |
| 71 | 196 | HC 8/SLC 3 (antibody) chain 1: GQGTLVTVSSASTKGPSVQPVLHQPPAMSSALGTTIRLTCTLRNDHDIGVYSVYWYQQRPGHPPRFLLRYFSQSDKSQGPQVPPRFSGSKDVARNRGYLSISELQPEDEAMYYCAMGARSRCWPRGFQSKHNSVTHVFGSGTQLTVLSQPKATPSVTLFPPSSEELQANKATLVCLMNDFYPGILTVTWKADGTPITQGVEMTTPSKQSNNKYAASSYLSLTPEQWRSRRSYSCQVMHEGSTVEKTVAPAECS chain 2: MSWAPVLLMLFVYCTGCGPQPVLHQPPAMSSALGTTIRLTCTLRNDHDIGVYSVYWYQQRPGHPPRFLLRYFSQSDKSQGPQVPPRFSGSKDVARNRGYLSISVTHVFGSGTQLTVLSQPQVQLVQ |
| 60 | 147 | HC 4/SLC 3 (antibody) chain 1: GQGTLVTVSSASTKQPVLHQPPAMSSALGTTIRLTCTLRNDHDIGVYSVYWYQQRPGHPPRFLLRYFSQSDKSQGPQVPPRFSGSKDVARNRGYLSISELQPEDEAMYYCAMGARSRCWPRGFQSKHNSVTHVFGSGTQLTVLSQPKATPSVTLFPPSSEELQANKATLVCLMNDFYPGILTVTWKADGTPITQGVEMTTPSKQSNNKYAASSYLSLTPEQWRSRRSYSCQVMHEGSTVEKTVAPAECS chain 2: MSWAPVLLMLFVYCTGCGPQPVLHQPPAMSSALGTTIRLTCTLRNDHDIGVYSVYWYQQRPGHPPRFLLRYFSQSDKSQGPQVPPRFSGSKDVARNRGYLSISVTHVFGSGTQLTVLSQPQVQLVQ |
| 58 | 85 | HC 8/SLC 7 (antibody) chain 1: GQGTLVTVSSASTKGPSVQPVLHQPPAMSSALGTTIRLTCTLRNDHDIGVYSVYWYQQRPGHPPRFLLRYFSQSDKSQGPQVPPRFSGSKDVARNRGYLSISELQPEDEAMYYCAMGARSRCWPRGFQSKHNSVTHVFGSGTQLTVLSQPKATPSVTLFPPSSEELQANKATLVCLMNDFYPGILTVTWKADGTPITQGVEMTTPSKQSNNKYAASSYLSLTPEQWRSRRSYSCQVMHEGSTVEKTVAPAECS chain 2: MSWAPVLLMLFVYCTGCGPQPVLHQPPAMSSALGTTIRLTCTLRNDHDIGVYSVYWYQQRPGHPPRFLLRYFSQSDKSQGPQVPPRFSGSKDVARNRGYLSISVTHVFGSGTQLTVLSQPKATPQVQLVQ |
| 78 | 136 | HC 9/SLC 3 (antibody) chain 1: GQGTLVTVSSASTKGPSVFQPVLHQPPAMSSALGTTIRLTCTLRNDHDIGVYSVYWYQQRPGHPPRFLLRYFSQSDKSQGPQVPPRFSGSKDVARNRGYLSISELQPEDEAMYYCAMGARSRCWPRGFQSKHNSVTHVFGSGTQLTVLSQPKATPSVTLFPPSSEELQANKATLVCLMNDFYPGILTVTWKADGTPITQGVEMTTPSKQSNNKYAASSYLSLTPEQWRSRRSYSCQVMHEGSTVEKTVAPAECS chain 2: MSWAPVLLMLFVYCTGCGPQPVLHQPPAMSSALGTTIRLTCTLRNDHDIGVYSVYWYQQRPGHPPRFLLRYFSQSDKSQGPQVPPRFSGSKDVARNRGYLSISVTHVFGSGTQLTVLSQPQVQLVQ |
| 48 | 50 | HC 8/SLC 15 (antibody) chain 1: GQGTLVTVSSASTKGPSVQPVLHQPPAMSSALGTTIRLTCTLRNDHDIGVYSVYWYQQRPGHPPRFLLRYFSQSDKSQGPQVPPRFSGSKDVARNRGYLSISELQPEDEAMYYCAMGARSRCWPRGFQSKHNSVTHVFGSGTQLTVLSQPKATPSVTLFPPSSEELQANKATLVCLMNDFYPGILTVTWKADGTPITQGVEMTTPSKQSNNKYAASSYLSLTPEQWRSRRSYSCQVMHEGSTVEKTVAPAECS chain 2: MSWAPVLLMLFVYCTGCGPQPVLHQPPAMSSALGTTIRLTCTLRNDHDIGVYSVYWYQQRPGHPPRFLLRYFSQSDKSQGPQVPPRFSGSKDVARNRGYLSISVTHVFGSGTQLTVLSQPKATPSVTGGGGSQVQLVQ |
| 54 | 49 | HC 10/SLC 15 (antibody) chain 1: GQGTLVTVSSASTKGPSVFPQPVLHQPPAMSSALGTTIRLTCTLRNDHDIGVYSVYWYQQRPGHPPRFLLRYFSQSDKSQGPQVPPRFSGSKDVARNRGYLSISELQPEDEAMYYCAMGARSRCWPRGFQSKHNSVTHVFGSGTQLTVLSQPKATPSVTLFPPSSEELQANKATLVCLMNDFYPGILTVTWKADGTPITQGVEMTTPSKQSNNKYAASSYLSLTPEQWRSRRSYSCQVMHEGSTVEKTVAPAECS chain 2: MSWAPVLLMLFVYCTGCGPQPVLHQPPAMSSALGTTIRLTCTLRNDHDIGVYSVYWYQQRPGHPPRFLLRYFSQSDKSQGPQVPPRFSGSKDVARNRGYLSISVTHVFGSGTQLTVLSQPKATPSVTGGGGSQVQLVQ |
| 61 | 181 | HC 10/SLC 5 (antibody) chain 1: GQGTLVTVSSASTKGPSVFPQPVLHQPPAMSSALGTTIRLTCTLRNDHDIGVYSVYWYQQRPGHPPRFLLRYFSQSDKSQGPQVPPRFSGSKDVARNRGYLSISELQPEDEAMYYCAMGARSRCWPRGFQSKHNSVTHVFGSGTQLTVLSQPKATPSVTLFPPSSEELQANKATLVCLMNDFYPGILTVTWKADGTPITQGVEMTTPSKQSNNKYAASSYLSLTPEQWRSRRSYSCQVMHEGSTVEKTVAPAECS chain 2: MSWAPVLLMLFVYCTGCGPQPVLHQPPAMSSALGTTIRLTCTLRNDHDIGVYSVYWYQQRPGHPPRFLLRYFSQSDKSQGPQVPPRFSGSKDVARNRGYLSISVTHVFGSGTQLTVLSQPKAQVQLVQ |
| 53 | 163 | HC 3/SLC 2 (antibody) chain 1: GQGTLVTVSSASTQPVLHQPPAMSSALGTTIRLTCTLRNDHDIGVYSVYWYQQRPGHPPRFLLRYFSQSDKSQGPQVPPRFSGSKDVARNRGYLSISELQPEDEAMYYCAMGARSRCWPRGFQSKHNSVTHVFGSGTQLTVLSQPKATPSVTLFPPSSEELQANKATLVCLMNDFYPGILTVTWKADGTPITQGVEMTTPSKQSNNKYAASSYLSLTPEQWRSRRSYSCQVMHEGSTVEKTVAPAECS chain 2: MSWAPVLLMLFVYCTGCGPQPVLHQPPAMSSALGTTIRLTCTLRNDHDIGVYSVYWYQQRPGHPPRFLLRYFSQSDKSQGPQVPPRFSGSKDVARNRGYLSISVTHVFGSGTQLTVLSQQVQLVQ |
| 53 | 188 | HC 4/SLC 2 (antibody) chain 1: GQGTLVTVSSASTKQPVLHQPPAMSSALGTTIRLTCTLRNDHDIGVYSVYWYQQRPGHPPRFLLRYFSQSDKSQGPQVPPRFSGSKDVARNRGYLSISELQPEDEAMYYCAMGARSRCWPRGFQSKHNSVTHVFGSGTQLTVLSQPKATPSVTLFPPSSEELQANKATLVCLMNDFYPGILTVTWKADGTPITQGVEMTTPSKQSNNKYAASSYLSLTPEQWRSRRSYSCQVMHEGSTVEKTVAPAECS chain 2: MSWAPVLLMLFVYCTGCGPQPVLHQPPAMSSALGTTIRLTCTLRNDHDIGVYSVYWYQQRPGHPPRFLLRYFSQSDKSQGPQVPPRFSGSKDVARNRGYLSISVTHVFGSGTQLTVLSQQVQLVQ |
| 61 | 139 | HC 6/SLC 6 (antibody) chain 1: GQGTLVTVSSASTKGPQPVLHQPPAMSSALGTTIRLTCTLRNDHDIGVYSVYWYQQRPGHPPRFLLRYFSQSDKSQGPQVPPRFSGSKDVARNRGYLSISELQPEDEAMYYCAMGARSRCWPRGFQSKHNSVTHVFGSGTQLTVLSQPKATPSVTLFPPSSEELQANKATLVCLMNDFYPGILTVTWKADGTPITQGVEMTTPSKQSNNKYAASSYLSLTPEQWRSRRSYSCQVMHEGSTVEKTVAPAECS chain 2: MSWAPVLLMLFVYCTGCGPQPVLHQPPAMSSALGTTIRLTCTLRNDHDIGVYSVYWYQQRPGHPPRFLLRYFSQSDKSQGPQVPPRFSGSKDVARNRGYLSISVTHVFGSGTQLTVLSQPKATQVQLVQ |
| 56 | 83 | HC 6/SLC 7 (antibody) chain 1: GQGTLVTVSSASTKGPQPVLHQPPAMSSALGTTIRLTCTLRNDHDIGVYSVYWYQQRPGHPPRFLLRYFSQSDKSQGPQVPPRFSGSKDVARNRGYLSISELQPEDEAMYYCAMGARSRCWPRGFQSKHNSVTHVFGSGTQLTVLSQPKATPSVTLFPPSSEELQANKATLVCLMNDFYPGILTVTWKADGTPITQGVEMTTPSKQSNNKYAASSYLSLTPEQWRSRRSYSCQVMHEGSTVEKTVAPAECS chain 2: MSWAPVLLMLFVYCTGCGPQPVLHQPPAMSSALGTTIRLTCTLRNDHDIGVYSVYWYQQRPGHPPRFLLRYFSQSDKSQGPQVPPRFSGSKDVARNRGYLSISVTHVFGSGTQLTVLSQPKATPQVQLVQ |
| 69 | 160 | HC 6/SLC 3 (antibody) chain 1: GQGTLVTVSSASTKGPQPVLHQPPAMSSALGTTIRLTCTLRNDHDIGVYSVYWYQQRPGHPPRFLLRYFSQSDKSQGPQVPPRFSGSKDVARNRGYLSISELQPEDEAMYYCAMGARSRCWPRGFQSKHNSVTHVFGSGTQLTVLSQPKATPSVTLFPPSSEELQANKATLVCLMNDFYPGILTVTWKADGTPITQGVEMTTPSKQSNNKYAASSYLSLTPEQWRSRRSYSCQVMHEGSTVEKTVAPAECS chain 2: MSWAPVLLMLFVYCTGCGPQPVLHQPPAMSSALGTTIRLTCTLRNDHDIGVYSVYWYQQRPGHPPRFLLRYFSQSDKSQGPQVPPRFSGSKDVARNRGYLSISVTHVFGSGTQLTVLSQPQVQLVQ |
| 61 | 128 | HC 8/SLC 6 (antibody) chain 1: GQGTLVTVSSASTKGPSVQPVLHQPPAMSSALGTTIRLTCTLRNDHDIGVYSVYWYQQRPGHPPRFLLRYFSQSDKSQGPQVPPRFSGSKDVARNRGYLSISELQPEDEAMYYCAMGARSRCWPRGFQSKHNSVTHVFGSGTQLTVLSQPKATPSVTLFPPSSEELQANKATLVCLMNDFYPGILTVTWKADGTPITQGVEMTTPSKQSNNKYAASSYLSLTPEQWRSRRSYSCQVMHEGSTVEKTVAPAECS chain 2: MSWAPVLLMLFVYCTGCGPQPVLHQPPAMSSALGTTIRLTCTLRNDHDIGVYSVYWYQQRPGHPPRFLLRYFSQSDKSQGPQVPPRFSGSKDVARNRGYLSISVTHVFGSGTQLTVLSQPKATQVQLVQ |
